Source: patent US7148006

Biological target: wild type human PKR, full length (aa 1-551) (human) (UniProt P19525)
Test: cell-based or functional assay

wild type human PKR, full length (aa 1-551) (human), sequence (P19525 whole entry, the tested form may be a part): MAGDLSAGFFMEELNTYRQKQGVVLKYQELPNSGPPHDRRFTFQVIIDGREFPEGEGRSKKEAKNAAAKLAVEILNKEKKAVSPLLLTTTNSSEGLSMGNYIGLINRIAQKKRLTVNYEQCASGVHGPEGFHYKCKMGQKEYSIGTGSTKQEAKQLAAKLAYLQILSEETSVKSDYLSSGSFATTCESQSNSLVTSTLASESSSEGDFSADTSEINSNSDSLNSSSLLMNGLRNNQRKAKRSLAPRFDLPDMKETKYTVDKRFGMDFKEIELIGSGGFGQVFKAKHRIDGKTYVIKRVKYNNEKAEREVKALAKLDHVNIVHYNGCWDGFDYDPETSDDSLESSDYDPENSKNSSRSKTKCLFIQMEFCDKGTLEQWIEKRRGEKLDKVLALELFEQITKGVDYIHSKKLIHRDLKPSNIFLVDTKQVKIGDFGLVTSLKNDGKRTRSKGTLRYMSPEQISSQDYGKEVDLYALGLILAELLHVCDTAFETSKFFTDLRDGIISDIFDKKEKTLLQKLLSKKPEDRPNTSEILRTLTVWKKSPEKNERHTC

In the case of “NS5A 1b-2 (untagged, expressed from pYES-NS5A 1b-2)”, the fold decrease in plating efficiency of yeast RY1-1 on galactose medium is reported as 10 to 100 fold.
